Reference: publication PMC2120989 (The Journal of Cell Biology, 1996)

T1: recombinant full-length (His)6-tagged Xenopus beta-catenin (Xenopus, UniProt P26233 1-781)
T1 sequence (looked up): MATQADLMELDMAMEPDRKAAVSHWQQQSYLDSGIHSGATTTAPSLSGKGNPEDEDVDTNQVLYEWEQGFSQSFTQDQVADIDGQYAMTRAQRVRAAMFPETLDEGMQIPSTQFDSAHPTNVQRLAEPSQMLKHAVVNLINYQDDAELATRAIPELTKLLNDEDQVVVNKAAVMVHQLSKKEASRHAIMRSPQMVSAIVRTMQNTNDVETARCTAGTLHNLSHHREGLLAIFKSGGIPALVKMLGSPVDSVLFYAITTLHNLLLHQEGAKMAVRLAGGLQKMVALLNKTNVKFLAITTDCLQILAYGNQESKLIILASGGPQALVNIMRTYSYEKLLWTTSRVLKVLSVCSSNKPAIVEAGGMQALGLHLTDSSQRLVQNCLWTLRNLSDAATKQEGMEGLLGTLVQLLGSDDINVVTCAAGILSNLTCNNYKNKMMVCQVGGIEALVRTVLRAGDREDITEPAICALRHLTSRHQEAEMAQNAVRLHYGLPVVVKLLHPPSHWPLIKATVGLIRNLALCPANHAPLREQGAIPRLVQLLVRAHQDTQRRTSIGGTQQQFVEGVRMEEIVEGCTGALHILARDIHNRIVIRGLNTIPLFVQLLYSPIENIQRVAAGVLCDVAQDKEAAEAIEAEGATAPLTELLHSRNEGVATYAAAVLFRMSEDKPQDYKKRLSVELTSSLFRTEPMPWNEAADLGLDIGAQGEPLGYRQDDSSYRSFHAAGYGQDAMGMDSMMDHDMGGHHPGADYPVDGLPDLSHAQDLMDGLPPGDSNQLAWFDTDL


How the values were obtained:
[1] = target: full-length recombinant fascin, thioredoxin fusion protein (mouse, UniProt Q61553 1-493); experiment: co-IP
[2] = target: T1, recombinant full-length (His)6-tagged …; experiment: co-IP

Row | binding result [1] | binding result [2] | Binder
1 | binds | – | GST fusion protein of the Armadillo repeat region of beta-catenin (amino acid residues 167-583) (domain or fragment) VVNKAAVMVHQLSKKEASRHAIMRSPQMVSAIVRTMQNTNDVETARCTAGTLHNLSHHREGLLAIFKSGGIPALVKMLGSPVDSVLFYAITTLHNLLLHQEGAKMAVRLAGGLQKMVALLNKTNVKFLAITTDCLQILAYGNQESKLIILASGGPQALVNIMRTYSYEKLLWTTSRVLKVLSVCSSNKPAIVEAGGMQALGLHLTDSSQRLVQNCLWTLRNLSDAATKQEGMEGLLGTLVQLLGSDDINVVTCAAGILSNLTCNNYKNKMMVCQVGGIEALVRTVLRAGDREDITEPAICALRHLTSRHQEAEMAQNAVRLHYGLPVVVKLLHPPSHWPLIKATVGLIRNLALCPANHAPLREQGAIPRLVQLLVRAHQDTQRRTSIGGTQQQFVEGVRMEEIVEGCTGALHILARD
2 | – | binds | GST-E-cadherin fusion protein, cytoplasmic domain (residues 734-884) of mouse E-cadherin (domain or fragment) not shown
